{
  "source": "patent US8765126B2",
  "about": "“Methods of treating complications and disorders associated with G-CSF administration” (priority 2011, dated 2014)",
  "molecules": {"B1": {"name": "Granulocyte colony-stimulating factor (protein, chains of the INN, looked up)", "chain": "MTPLGPASSLPQSFLLKCLEQVRKIQGDGAALQEKLCATYKLCHPEELVLLGHSLGIPWAPLSSCPSQALQLAGCLSQLHSGLFLYQGLLQALEGISPELGPTLDTLQLDVADFATTIWQQMEELGMAPALQPTQGAMPAFASAFQRRAGGVLVASHLQSFLEVSYRVLRHLAQP"}},
  "key": {"[1]": {"test_system": "HECA-452-reactive glycans", "assay": "Flow cytometry of cell surface HECA-452-reactive sialofucosylated glycans on myeloid cells", "format": "cell-based, human", "description": "(§1) Flow cytometry. Cell surface expression of E-selectin ligands and MPO was determined by indirect single-color immunostaining with HECA-452 and anti-MPO (2C7) mAbs, respectively. Cells were incubated with primary antibodies and their matched isotype controls in PBS with 2% FBS for 20 min, on ice. After successive washes with PBS and 2% FBS cells were stained with FITC-conjugated secondary antibody for HECA-452 and PE-conjugated secondary antibody for MPO. Stained cells were then washed, resuspended in PBS, and analyzed using the Cytomics FC 500 MPL flow cytometer (Beckman Coulter, Miami, Fla.).\n(§2) In vitro G-CSF treatment. Myeloid cells (10^6 cells/ml), isolated from different sources were cultured with RPMI 1640 medium (Mediatech, Inc, Manassas, Va.) with 10% FBS, 1% pen/strep and 10 ng/ml recombinant human G-CSF (Neupogen) from Amgen Mfg. Ltd., CA. Cells were maintained in culture for 72 h, at 37° C. and G-CSF aliquots were added after each 24 h period.\n(§3) Neuraminidase and DMJ treatment. Cells were isolated from the buffy coat of bone marrow aspirates after centrifugal sedimentation and red blood cell lysis. […] After extensive washes, cells were divided in equal numbers and cultured in RPMI 1640 medium, for 48 h, with or without G-CSF treatment. In parallel, a subset of cells cultured with G-CSF was treated with 1 mM deoxymannojirimycin (DMJ). The effect(s) of G-CSF and DMJ were assessed by flow cytometry analysis of surface expression of HECA-452 determinants and of MPO."}, "membrane MPO": {"test_system": "membrane MPO", "assay": "Flow cytometry of cell surface (membrane) MPO expression on myeloid cells", "format": "cell-based, human", "description": "as §1, §2, §3"}, "surface MPO": {"test_system": "surface MPO", "assay": "Detection of membrane MPO activity (surface biotinylation, streptavidin beads, OPD substrate)", "format": "cell-based, human", "description": "Detection of membrane MPO activity. Aliquots of NL and ML were surface biotinylated, lyesed and membrane proteins were precipitated with streptavidin-conjugated agarose beads. The beads were incubated with a chromogenic peroxidase substrate, o-Phenylenediamine dihydrochloride (OPD) (Sigma) and the activity of surface MPO was monitored spectrophotometrically."}, "[2]": {"test_system": "mice with surgically-induced myocardial infarct", "assay": "Surgically induced myocardial infarct, echocardiographic ejection fraction", "format": "in vivo", "conditions": "7 days post-MI, mice injected with neuraminidase-treated ML vs untreated ML", "excerpt": "Adult RAG-2/JAK-3 SCID mice were maintained on a standard mouse chow diet and water ad libitum, and housed in a temperature-controlled environment under an alternating 12-hour light/dark cycle. All animal handling procedures adhered strictly to the approved guidelines of the Institutional Animal Care and Use Committee. Mice paired by weight and sex were distributed in two groups: in one group experimental MI was induced by permanent left anterior descending artery (LAD) ligation, as previously described^67 and another group that underwent open thoracotomy without coronary ligation (sham operated). Within five hours following the surgery, mice from each group were injected via jugular vein either with PBS or different cell types: NL, ML or sialidase-treated ML (4×10^6 cells/mouse). The surgeon who performed the MI procedure and the jugular vein perfusions was blinded to the type of cells/[…] injected in each animal. Echocardiography was performed on all mice before surgery (baseline), at 3 days and 7 days following surgery using an 18 to 38 MHz linear-array transducer with a digital ultrasound system (Vevo 2100 Imaging System, VisualSonics, Toronto, Canada). Standard parasternal long- and short-axis views were obtained during each echocardiographic examination and image measurements were performed offline by an investigator blinded to animal groups and the cell types/PBS injections."}, "MPO-EL": {"test_system": "MPO-EL", "assay": "MPO immunoprecipitation and western blot with E-selectin-Ig chimera / anti-MPO 3D3", "format": "cell-based, human", "description": "G-CSF induces MPO-EL expression in myeloid cells in vitro. To directly assess whether G-CSF stimulates expression of MPO-EL, freshly obtained BM, NL and ML were placed in culture and treated for 48 hours with human G-CSF at 10 ng/ml, a dose reflecting physiologic concentrations of G-CSF following in vivo administration^21,37. MPO was immunoprecipitated from equivalent cell numbers of BM, NL and ML, then resolved on SDS-PAGE and blotted with an anti-MPO Ab which predominantly recognizes the heavy chain (clone 3D3) (FIG. 4d); blots were then stripped and stained with E-Ig (FIG. 4e).\nImmunoprecipitations, SDS-PAGE and Western Blotting. Leukocytes were lysed in Buffer A (0.5 mM Tris, pH=8, 150 mM NaCl, 20 μg/ml PMSF, 0.02% sodium azide) supplemented with 1% Triton (Sigma-Aldrich, St. Louis, Mo.) and protease inhibitor cocktail (Roche Diagnostics GmbH, Mannheim, Germany). Cell lysates were precleared with rProtein G Agarose beads (Invitrogen, Carlsbad, Calif.). Immunoprecipitations were performed at 4° C. for 16 h, by incubating the precleared lysates with 2 μg antibody and a fresh batch of agarose beads blocked in advance with 1 mg/ml bovine serum albumin (Sigma-Aldrich, St. Louis, Mo.). After extensive washes, the beads were boiled with sample buffer and the released antigens or cell lysates were resolved on 7.5% Tris-HCl SDS-PAGE (Criterion™ Precast Gel, Bio-Rad Laboratories, Hercules, Calif.). In western blot experiments separated proteins were transferred to Sequi-Blot™PVDF Membrane (Bio-Rad Laboratories, Hercules, Calif.) which was blocked for 2 h with a solution of 5% Non-Fat Milk (LabScientific, Livingston, N.J.). Proteins were detected with E-selectin-Ig chimera or with anti-MPO mAb: clone 2C7 (Abcam) and clone 3D3 (a generous gift from Carrie Rice at Maine Biotechnology Services, ME). Secondary antibodies goat anti-human IgG and goat anti-mouse IgG, HRP-conjugated were detected with Lumi-Light Western Blotting Substrate, (Roche Diagnostics GmbH, Mannheim, Germany).\nIn vitro G-CSF treatment. […]"}, "[3]": {"conditions": "patients receiving G-CSF; cited from earlier work"}},
  "note": "Entries after “also recorded” stand apart in the source; their conditions may differ. Read-outs that look alike come from different tables or passages of the source.",
  "data": [
    {"molecule": "OC[C@H]1NC[C@@H](O)[C@@H](O)[C@@H]1O", "note": "[DMJ, deoxymannojirimycin, reference compound]", "values": [
      {"measurement": "G-CSF-induced expression of HECA-452-reactive glycans", "setting": "[1]; NA-treated BM cells cultured 48 h with G-CSF in presence of 1 mM DMJ", "result": "markedly diminished"},
      {"measurement": "G-CSF-induced MPO expression", "setting": "membrane MPO; NA-treated BM cells, G-CSF in presence of 1 mM DMJ, 48 h", "result": "significantly attenuated"},
      {"measurement": "induction of surface enzymatic activity", "setting": "surface MPO; DMJ added to G-CSF-treated NL", "result": "prevented induction of surface enzymatic activity"},
      {"measurement": "G-CSF-induced angiotoxicity", "setting": "TNF-α-stimulated HUVEC; NL treated with G-CSF and DMJ together", "result": "prevented G-CSF-induced angiotoxicity"}
    ]},
    {"molecule": "sialidase: Vibrio Cholerae neuraminidase used to cleave terminal sialic acid from sLex [reference compound]", "values": [
      {"measurement": "MPO expression", "setting": "membrane MPO; BM cells treated with NA, cultured 48 h", "result": "did not induce MPO expression"},
      {"measurement": "ejection fraction", "setting": "[2]", "result": "improved ejection fraction"},
      {"measurement": "endothelial cell death", "setting": "TNF-α-stimulated HUVEC; TNF-α-stimulated HUVEC in absence of leukocytes (baseline)", "result": "no effect"},
      {"measurement": "endothelial cell death", "setting": "TNF-α-stimulated HUVEC; co-culture with sialidase-treated ML compared to untreated ML", "result": "significantly decreased"}
    ]},
    {"molecule": "B1", "values": [
      {"measurement": "HECA452-reactive glycans", "setting": "[1]; ML treated ex vivo with G-CSF", "result": "only modest increases"},
      {"measurement": "expression of HECA-452 determinants", "setting": "[1]; NA-treated BM cells incubated with G-CSF vs without G-CSF, 48 h", "result": "marked increased expression"},
      {"measurement": "HECA452-reactive glycans", "setting": "[1]; NL and BM treated ex vivo with G-CSF", "result": "significant increase"},
      {"measurement": "MPO membrane expression", "setting": "membrane MPO; ML treated ex vivo with G-CSF", "result": "only modestly increased"},
      {"measurement": "expression of surface MPO", "setting": "membrane MPO; NL and BM cells treated ex vivo with G-CSF", "result": "dramatically increased"},
      {"measurement": "cell surface MPO enzymatic (peroxidase) activity", "setting": "surface MPO; NL cultured with 10 ng/ml G-CSF for 48 hours", "result": "induced surface peroxidase activity"},
      {"measurement": "MPO-EL expression", "setting": "MPO-EL; BM and NL, 10 ng/ml G-CSF, 48 hours", "result": "markedly induces"},
      {"measurement": "MPO quantity", "setting": "MPO-EL; BM and NL, 10 ng/ml G-CSF, 48 hours, anti-MPO 3D3 blot", "result": "without significant increase"},
      {"measurement": "MPO-EL expression", "setting": "MPO-EL; ML, ex vivo exposure to G-CSF", "result": "did not further increase"},
      {"measurement": "angiotoxicity", "setting": "TNF-α-stimulated HUVEC; G-CSF-treated ML compared to untreated ML", "result": "no significant increase in angiotoxicity"},
      {"measurement": "endothelial cell death (cytotoxic effect)", "setting": "TNF-α-stimulated HUVEC; G-CSF-treated NL or BM compared to untreated NL or BM cells", "result": "enhanced cytotoxic effect; also recorded: markedly increased"},
      {"measurement": "cutaneous leukocytoclastic vasculitis, patients affected", "setting": "[3]", "result": "≤ 6", "unit": "%"}
    ]}
  ]
}
